Measured values from US20260265393A1 (SHANGHAI CELGEN BIO PHARMACEUTICAL, published 2026).
Residue numbers refer to the chain shown, from its start. “And” between values parts separate entries of the source, which are not always exact repeats. Equal values may be shown once. Read-outs that look alike come from different tables or passages of the source. Blank lines part the entries; values can stand above or below the binder they belong to.

Legend:
CD27-mFc (Kangdai) [1] = molecular target: T1, CD27-mFc (Kangdai) (human, UniProt P26842 21-192, limits assumed); test: ELISA on coated CD27-mFc
T1 construct: Bought reagent; also called antigen CD27-mFc; solid-phase human CD27; not shown: mouse Fc (mFc)
T1 sequence (looked up): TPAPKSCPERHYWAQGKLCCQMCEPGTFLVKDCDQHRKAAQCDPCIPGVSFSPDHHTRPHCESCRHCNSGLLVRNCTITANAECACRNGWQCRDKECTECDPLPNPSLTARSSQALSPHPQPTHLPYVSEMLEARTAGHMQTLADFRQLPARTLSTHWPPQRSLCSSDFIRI

CD27-mFc (Kangdai) [2] = molecular target: T1, CD27-mFc (Kangdai); test: ELISA on coated CD27-mFc; remark: listed apart in the source
[3] = molecular target: T2, antigen CD27 (soluble, as used in the BLI and SPR experiments) (UniProt P26842 21-192, limits assumed); test: SPR, Biacore T200, CM5 chip
T2 sequence (looked up): T1 sequence (looked up)

[4] = molecular target: T3, human CD27 (transmembrane protein) on the cell membrane (human, UniProt P26842 20-260); test: flow cytometry on CHO cells expressing human CD27
T3 construct: whole, on cells; One molecule is used for CD27 on CHO-CD27 cells, on human PBMC T and B cells and on Jurkat reporter cells; also called CHO-CD27
T3 sequence (looked up): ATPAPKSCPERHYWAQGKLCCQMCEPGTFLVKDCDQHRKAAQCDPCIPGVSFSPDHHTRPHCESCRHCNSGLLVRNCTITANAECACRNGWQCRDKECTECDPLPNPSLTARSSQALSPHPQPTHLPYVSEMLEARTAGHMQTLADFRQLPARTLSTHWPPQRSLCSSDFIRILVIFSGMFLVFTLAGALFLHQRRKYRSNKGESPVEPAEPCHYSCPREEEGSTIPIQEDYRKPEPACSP

[5] = molecular target: T2, antigen CD27 (soluble, as used in the …); test: BLI, antibody captured on AHC probe, CD27 in solution
CD27-mFc (Kangdai) [6] = molecular target: T1, CD27-mFc (Kangdai); test: competition ELISA: CD70 coated, CD27-mFc plus antibody dilutions; competitor CD70
CD27-mFc (Kangdai) [7] = molecular target: T1, CD27-mFc (Kangdai); test: competition ELISA: CD70 coated, CD27-mFc 4.3 µg/mL plus antibody dilutions; competitor CD70
mouse CD27 = molecular target: T4, mouse CD27 (mouse, UniProt P41272 24-182, limits assumed); test: hybridoma screening; format not described
T4 sequence (looked up): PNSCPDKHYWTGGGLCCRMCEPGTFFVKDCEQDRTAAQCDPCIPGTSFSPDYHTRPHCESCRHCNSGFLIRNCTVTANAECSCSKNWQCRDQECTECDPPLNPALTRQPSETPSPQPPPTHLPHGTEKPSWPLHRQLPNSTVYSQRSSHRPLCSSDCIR

[8] = molecular target: T3, human CD27 (transmembrane protein) on …; test: flow cytometry on CHO cells expressing human CD27; remark: listed apart in the source
CD27-mFc (Kangdai) [9] = molecular target: T1, CD27-mFc (Kangdai); test: competition ELISA: CD70 coated, CD27-mFc plus antibody dilutions; competitor CD70; remark: listed apart in the source
CD27-mFc (Kangdai) [10] = molecular target: T1, CD27-mFc (Kangdai); test: ELISA on coated CD27-mFc (1 ug/mL), AP anti-human Fc detection, absorption at 405/490 nm (Example 15.2)
CD27-mFc (Kangdai) [11] = molecular target: T1, CD27-mFc (Kangdai); test: ELISA on coated CD27-mFc; remark: listed apart in the source
[12] = molecular target: T5, human CD64 on CHO-K cells (CHO-CD64) (human, UniProt P12314 16-374); test: flow cytometry on CHO-CD64 cells, FITC anti-human Fc detection (Example 16)
T5 construct: whole, on cells; also called membrane CD64
T5 sequence (P12314 16-374): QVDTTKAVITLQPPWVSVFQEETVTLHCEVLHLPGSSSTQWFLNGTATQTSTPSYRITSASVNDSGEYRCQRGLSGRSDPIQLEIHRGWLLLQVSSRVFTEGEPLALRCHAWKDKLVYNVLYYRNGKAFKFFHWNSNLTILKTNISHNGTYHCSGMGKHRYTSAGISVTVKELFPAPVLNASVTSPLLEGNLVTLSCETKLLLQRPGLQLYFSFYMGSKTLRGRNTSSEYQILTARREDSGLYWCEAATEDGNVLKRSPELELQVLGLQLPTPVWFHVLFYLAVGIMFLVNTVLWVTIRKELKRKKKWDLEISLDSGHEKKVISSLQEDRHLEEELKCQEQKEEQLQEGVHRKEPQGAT

[13] = molecular target: T6, human CD32a on Jurkat cells (Jurkat-CD32a) (human, UniProt P12318 34-317); test: flow cytometry on Jurkat-CD32a cells, FITC anti-human Fc detection (Example 16)
T6 construct: whole, on cells; also called membrane CD32a
T6 sequence (looked up): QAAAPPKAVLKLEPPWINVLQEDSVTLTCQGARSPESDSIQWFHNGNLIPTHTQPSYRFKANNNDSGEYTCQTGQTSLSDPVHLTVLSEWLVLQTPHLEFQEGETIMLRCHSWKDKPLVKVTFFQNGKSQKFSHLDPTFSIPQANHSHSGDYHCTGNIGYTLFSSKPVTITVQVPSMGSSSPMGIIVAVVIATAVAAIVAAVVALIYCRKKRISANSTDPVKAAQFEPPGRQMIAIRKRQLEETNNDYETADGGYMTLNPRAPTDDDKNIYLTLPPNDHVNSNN

CD27-mFc (Kangdai) [14] = molecular target: T1, CD27-mFc (Kangdai); test: competition ELISA: coated CD70 (1 ug/mL), CD27-mFc plus antibody dilution, HRP anti-mouse Fc detection, absorption at 450/655 nm (Example 15.3); blocked ligand CD70

binding result (mouse CD27): no binding
B2: 13B3 anti-human CD27 mouse monoclonal antibody (hybridoma clone) (antibody, V domains shown)
VH: QVQLQQSGPEQVKPGASVKISCKTSGYAFSQSWMNWVKQRPGQGLEWIGRIYPGDGDTNYNGIFKGKATLTADKSSSTAYMQLSSLTSLDSAVYFCASMIRTTYVMDHWGQGTSVTVTS
VL: DIVLTQSPATLSVTPGDSVSLSCRASQSVSNSLHWYQQKSHESPRLLIMYTSQSISGIPSRFSGSGSGTDFTLSINSVETEDFGMYFCQQSNSWPLTFGAGTKLELK
notes: also called 16B1-1-1

binding result (mouse CD27): no binding
B3: 16B1 anti-human CD27 mouse monoclonal antibody (hybridoma clone) (antibody, V domains shown)
VH: B2 VH
VL: B2 VL
notes: Tested as hybridoma supernatant; also called 16B1-1-1

EC50 (CD27-mFc (Kangdai) [11]): 0.029 µg/mL | EC50 (CD27-mFc (Kangdai) [2]): 0.0409 µg/mL and 0.274 nM | EC50 [8]: 0.224 µg/mL and 1.5 nM | IC50 (CD27-mFc (Kangdai) [9]): 1.31 µg/mL | IC50 (CD27-mFc (Kangdai) [6]): 1.91 µg/mL and 12.8 nM | EC50 (read off the curve) [12]: ~0.7 µg/mL
B8: 13B3-huH2L4 (P33433) humanized CD27 monoclonal antibody (antibody, human IgG1)
heavy: not shown
VL: EIVLTQSPATLSLSPGERATLSCRASQSVSNSLHWYQQKPGQAPRLLIMYTSQSISGIPARFSGSGSGTDFTLTISSLEPEDFAVYYCQQSNSWPLTFGGGTKLELK
notes: also called huVH2 + huVL4; parent antibody (wild-type)

IC50 (CD27-mFc (Kangdai) [6]): 1.91 µg/mL and 12.8 nM
B9: 13B3-huH4L3 (P33432) humanized CD27 monoclonal antibody (antibody, V domains shown)
VH: QVQLVQSGAEVKKPGASVKVSCKTSGYAFSQSWMNWVRQAPGQGLEWMGRIYPGDGDTNYAQKFQGRVTMTADTSISTAYMELSRLRSDDTAVYYCASMIRTTYVMDHWGQGTTVTVSS
VL: B8 VL with E1D, L13V, A19V, L78V

EC50 (CD27-mFc (Kangdai) [2]): 0.0371 µg/mL and 0.249 nM | Kd [3]: 0.699 nM | koff [3]: 0.00135 s⁻¹ | kon [3]: 1.93e+06 M⁻¹ s⁻¹ | EC50 [8]: 0.19 µg/mL and 1.27 nM
B10: 13B3-huH4L1 (P33425) humanized CD27 monoclonal antibody (antibody, V domains shown)
VH: B9 VH
VL: EIVLTQSPDFLSVTPKEKVTLTCRASQSVSNSLHWYQQKPDQSPKLLIMYTSQSISGIPSRFSGSGSGTDFTLTINSVEAEDAATYYCQQSNSWPLTFGGGTKLELK
notes: also called huVH4 + huVL1

EC50 (CD27-mFc (Kangdai) [1]): 0.0754 µg/mL | EC50 [4]: ~90.6 µg/mL | Kd [5]: 1.3 nM | koff [5]: 0.00016 s⁻¹ | kon [5]: 123000 M⁻¹ s⁻¹
B12: 17H8-hFc human-mouse chimeric CD27 monoclonal antibody (antibody, V domains shown)
VH: EVKLEESGGGLVQPGGSMKLSCVASGFTFSNYWMNWVRQSPEKGLEWVAEIRLKSNNYATYYAESVKGRFTISRDDSKSSVYLQMNSLRGEDTGIYYCTLYDSSYYYAMDYWGQGTSVTVSS
VL: DVVLTQTPLSLPVNIGDQASISCKSTQSLLHSDGFTYLDWYLQKPGQSPQLLIYLVSNRFLGVPDRFSGSGSRTDFTLKISRVEAEDLGVYYCFQSNYLPLTFGGGTKLEI
notes: Mouse 17H8 variable regions on human constant regions

binding result (mouse CD27): no binding
B13: 17H8 anti-human CD27 mouse monoclonal antibody (hybridoma clone) (antibody, V domains shown)
VH: B12 VH
VL: B12 VL
notes: also called 17H8-1-1

The remaining lines, values behind:

B1: 13B3-hFc human-mouse chimeric CD27 monoclonal antibody (antibody, V domains shown)
VH: B2 VH
VL: B2 VL
notes: Mouse 13B3 variable regions on human constant regions (expression vectors P378 and P379, made in 293F cells)
EC50 (CD27-mFc (Kangdai) [1]): 0.0344 µg/mL | EC50 (CD27-mFc (Kangdai) [2]): 0.0503 µg/mL and 0.337 nM | Kd [3]: 0.781 nM | koff [3]: 0.000954 s⁻¹ | kon [3]: 1.22e+06 M⁻¹ s⁻¹ | EC50 [4]: 2.49 µg/mL | Kd [5]: 1.23 nM | koff [5]: 0.000222 s⁻¹ | kon [5]: 181000 M⁻¹ s⁻¹ | IC50 (CD27-mFc (Kangdai) [6]): 2.06 µg/mL and 13.8 nM | IC50 (CD27-mFc (Kangdai) [7]): 1.47 µg/mL

B4: 13B3-huH2L3 (P33430) humanized CD27 monoclonal antibody (antibody, human IgG1)
heavy: not shown
VL: B8 VL with E1D, L13V, A19V, L78V
notes: also called huVH2 + huVL3
EC50 (CD27-mFc (Kangdai) [2]): 0.0418 µg/mL and 0.28 nM | Kd [3]: 0.391 nM | koff [3]: 0.000684 s⁻¹ | kon [3]: 1.75e+06 M⁻¹ s⁻¹ | EC50 [8]: 0.211 µg/mL and 1.41 nM | IC50 (CD27-mFc (Kangdai) [6]): 1.95 µg/mL and 13.1 nM

B5: 13B3-huH3L4 (P33434) humanized CD27 monoclonal antibody (antibody, V domains shown)
VH: B9 VH with M48I, A61N, Q62G, K63I, M70L
VL: B8 VL
notes: also called huVH3 + huVL4
EC50 (CD27-mFc (Kangdai) [2]): 0.0361 µg/mL and 0.242 nM | EC50 [8]: 0.242 µg/mL and 1.62 nM | IC50 (CD27-mFc (Kangdai) [6]): 1.75 µg/mL and 11.7 nM

B6: 13B3-huH2L3 (LALA) variant antibody (antibody, human IgG1, L234A L235A)
heavy: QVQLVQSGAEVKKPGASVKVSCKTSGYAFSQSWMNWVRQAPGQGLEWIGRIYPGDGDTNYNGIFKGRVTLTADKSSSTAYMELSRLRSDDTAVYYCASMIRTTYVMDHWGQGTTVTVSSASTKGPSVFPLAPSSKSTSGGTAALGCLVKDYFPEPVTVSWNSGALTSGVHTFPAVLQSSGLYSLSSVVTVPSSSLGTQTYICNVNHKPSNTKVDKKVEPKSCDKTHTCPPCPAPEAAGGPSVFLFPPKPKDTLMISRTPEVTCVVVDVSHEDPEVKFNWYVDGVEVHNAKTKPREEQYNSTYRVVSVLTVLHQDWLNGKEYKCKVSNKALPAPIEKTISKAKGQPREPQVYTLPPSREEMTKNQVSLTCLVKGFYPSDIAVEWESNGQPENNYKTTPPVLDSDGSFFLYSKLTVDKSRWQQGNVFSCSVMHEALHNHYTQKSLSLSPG
VL: B8 VL with E1D, L13V, A19V, L78V
notes: The light chain is that of 13B3-huH2L3 (huVL3)
IC50 (CD27-mFc (Kangdai) [9]): 1.09 µg/mL | EC50 (CD27-mFc (Kangdai) [10]): 0.037 µg/mL

B7: 13B3-huH2L4 (LALA) variant antibody (antibody, human IgG1, L234A L235A)
heavy: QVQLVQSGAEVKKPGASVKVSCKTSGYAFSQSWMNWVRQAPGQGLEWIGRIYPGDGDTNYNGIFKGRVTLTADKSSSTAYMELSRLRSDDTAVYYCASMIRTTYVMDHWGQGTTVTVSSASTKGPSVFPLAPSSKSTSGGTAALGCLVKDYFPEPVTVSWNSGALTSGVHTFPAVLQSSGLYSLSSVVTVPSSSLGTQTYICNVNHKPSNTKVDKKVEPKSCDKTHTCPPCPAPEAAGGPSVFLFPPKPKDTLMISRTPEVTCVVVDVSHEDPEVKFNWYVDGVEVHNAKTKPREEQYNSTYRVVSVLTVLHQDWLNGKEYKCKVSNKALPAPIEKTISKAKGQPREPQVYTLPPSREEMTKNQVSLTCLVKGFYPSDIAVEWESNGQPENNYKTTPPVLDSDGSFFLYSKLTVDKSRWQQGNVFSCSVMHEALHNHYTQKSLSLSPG
VL: B8 VL
notes: The light chain is that of 13B3-huH2L4 (huVL4); also called mutant antibody
EC50 (CD27-mFc (Kangdai) [11]): 0.029 µg/mL | binding result [12]: no binding (tested: 10 µg/mL) | binding result [13]: no binding (tested: 10 µg/mL) | IC50 (CD27-mFc (Kangdai) [14]): 1.12 µg/mL

B11: 13B3-huH2L2 (P33426) humanized CD27 monoclonal antibody (antibody, V domains shown)
VH: B9 VH with M48I, A61N, Q62G, K63I, Q65K, M70L, T74K, I76S
VL: IVLTQSPDFQSVTPKEKVTITCRASQSVSNSLHWYQQKPDQSPKLLIMYTSQSISGVPSRFSGSGSGTDFTLTINSLEAEDAATYYCQQSNSWPLTFGGGTKLELK
notes: also called huVH2 + huVL2
EC50 (CD27-mFc (Kangdai) [2]): 0.0486 µg/mL and 0.325 nM | Kd [3]: 0.643 nM | koff [3]: 0.00106 s⁻¹ | kon [3]: 1.65e+06 M⁻¹ s⁻¹ | EC50 [8]: 0.221 µg/mL and 1.48 nM | IC50 (CD27-mFc (Kangdai) [6]): 1.92 µg/mL and 12.8 nM
